Assay results as given in PMC2680933.
pKd: −log10 of the molar value.

How the values were obtained:
Assay in all cases: FRET or BRET
III3(V798D)-FRET = target: III3(V798D)-FRET
III3(D838G)-FRET = target: III3(D838G)-FRET
III3(V834D)-FRET = target: III3(V834D)-FRET
[1] = target: III3-FRET (III3 flanked by mYPet and mECFP*)

In the case of anastellin (domain or fragment), the FRET efficiency of the construct with anastellin (0.21 without) (III3(V798D)-FRET) was 0.28, the pKd (III3(V798D)-FRET) was 6.74 and the half time of binding (III3(V798D)-FRET) was less than 1 s. For the same substance, the FRET efficiency of the construct with anastellin (0.18 without) (III3(D838G)-FRET) was 0.27, the pKd (III3(D838G)-FRET) was 6.31 and the half time of binding (III3(D838G)-FRET) was 60 s. For the same substance, the FRET efficiency of the construct with anastellin (0.21 without) (III3(V834D)-FRET) was 0.27, the pKd (III3(V834D)-FRET) was greater than 7.30 and the half time of binding (III3(V834D)-FRET) was less than 1 s. For the same substance, the FRET efficiency of the construct with anastellin (0.19 without) [1] was 0.28, the pKd [1] was 6.68 and the first order rate constant of binding [1] was 0.02 s⁻¹. The half time of binding [1] was 30 s.
